{
  "source": "patent US11883498B2",
  "about": "“Luteinizing hormone-releasing hormone receptor (LHRH-R) conjugates and uses thereof” (priority 2016, dated 2024)",
  "key": {"[1]": {"system": "MDA-MB231 tumor xenografts", "settings": "for Competition of kidney uptake by coadministered unlabeled conjugate: 100-fold excess unlabeled conjugate", "description": "Animal Husbandry and in vivo tumor implantation. Female athymic nu/nu mice were purchased from Harlan laboratories. The animals were housed in a sterile environment and kept in 12 h light/day cycle. The animals have free access to rodent chow and water. 2×10^6 MDA-MB23 cells were suspended in 100 microliters of sterile phosphate buffer saline and injected subcutaneously into the right flank of each mouse.\nIn vivo imaging and biodistribution. All the animal experiments were conducted in accordance to the guidelines approved by Purdue Animal Care and Use Committee. The experiment was initiated once the tumor volume reached approximately 300-400 mm^3. Tumor volume was measured as 0.5×L×W2, where L is the longest axis and W is an axis perpendicular to L in mm. In the lateral tail vein, the mice were injected with 150 μCi of the radioactive conjugates (either in the presence or absence of excess of the unlabeled conjugates.) in 100 μl of sterile phosphate buffer saline For imaging mice were euthanized 2 h post injection by CO2 asphyxiation and imaged using Kodak Imaging Station. After imaging necroscopy was performed on animals to remove selected tissue and weighted. Tissue bound radioactivity was quantified by using gamma counter (Packard Gamma Counter) For time course study, the animals were sacrificed at following time points post injections: 2 h, 4 h, 6 h, and 8 h. Tissue of interest was weighed and the tissue bound radioactivity was counted by using gamma counter. Count per minute values of tissues bound radioactivity was decay corrected and converted into percentage injected dose per gram if the tissue (% ID/g). The data was analyzed by using GraphPad Prism.\nIn vivo whole body imaging and biodistribution of JL-L1A, JL-L2A and JL-L3A. In order to investigate the uptake of radioactive conjugates in LHRH-R positive tumors all the three conjugates (150 μCi) were injected the lateral vein of mice with MDA-MB231 tumors. For competition studies the mice were additional injected with 100-fold excess of the unlabeled conjugates. MDA-MB231 tumor bearing mice were injected with the ^99mTc chelated conjugates in their lateral tail vein (mice labeled as treated). Another group of mice were injected with the ^99mTc labeled molecules but in the presence of excess of the unlabeled conjugates. Images were taken 2 h post injections. FIG. 17A represents whole body imaging of JL-L1A whereas FIG. 17B and FIG. 17C represents the whole body imaging of JL-L2A and JL-L3A respectively. (n=5).\nThe further investigate the retention of 99mTc chelated JL-L3A, the radioactive conjugate was injected in mice with MDA-MB231 xenografts. After euthanizing the. Animals at 2 h, 4 h and 8 h post injection they were imaged and radioactivity associated with organs of interest was counted. […] MDA-MB231 tumor bearing mice were injected with the ^99mTc chelated conjugates in their lateral tail vein (mice labeled as treated). Another group of mice were injected with the ^99mTc labeled molecules but in the presence of excess of the unlabeled conjugates. Radioactivity of all the major organs and blood were determined 2 h post injection and the percentage injected dose per gram of the tissue was plotted. FIG. 18A represents biodistribution of JL-L1A whereas FIG. 18B and FIG. 18C represents the biodistribution of JL-L2A and JL-L3A respectively (n=5). Error bar indicates standard deviation."}, "LHRH-R": {"target": "T1, LHRH-R (Homo sapiens, UniProt P30968)", "T1 construct": "LHRH-R positive breast cancer cell, MDA-MB231; endogenous in cells; host or cells: MDA-MB231 breast cancer cells", "T1 sequence (P30968 1-328)": "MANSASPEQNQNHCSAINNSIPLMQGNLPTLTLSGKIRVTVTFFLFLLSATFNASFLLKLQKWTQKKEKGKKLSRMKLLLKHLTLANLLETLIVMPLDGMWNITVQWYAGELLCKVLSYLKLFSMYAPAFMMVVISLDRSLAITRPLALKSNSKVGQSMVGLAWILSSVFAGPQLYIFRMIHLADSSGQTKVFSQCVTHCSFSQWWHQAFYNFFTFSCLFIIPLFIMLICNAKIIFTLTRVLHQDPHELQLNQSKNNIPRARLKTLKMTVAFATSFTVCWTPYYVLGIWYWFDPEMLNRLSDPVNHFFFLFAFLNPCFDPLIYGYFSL", "test": "In vitro binding assay of 99mTc radioactive conjugate by cell bound radioactivity", "settings": "MDA-MB231 cells", "description": "In vitro binding assay. MDA-MB231 cells were seeded in 24 well plate and allowed to form a monolayer. […] The cells were incubated for 2 h at 37° C. and then rinsed three times with medium. After rinsing cells were dissolved by adding 0.5 ml of 0.25N NaOH to each well for 20 minutes. The cell bound radioactivity measured by using Packcard gamma counter and the Kd was calculated using the graphpad prism by plotting the cell bound radioactivity against the concentration of radiotracer. […] Solid circle indicates ^99mTc chelated conjugates whereas open circle indicates competition.\nTo determine the binding affinity, the MDA-MB231 cells were incubated with various concentrations of the radioactive conjugate JL-L1A either in the presence or absence of the unlabeled conjugate for 2 h at 37° C."}, "SKOV3 cells": {"system": "SKOV3 cells", "type": "cell-based, human", "settings": "free drug, 2 h exposure + 66 h, 3H-thymidine incorporation", "description": "(§1) In vitro determination of cell viability. MDA-MB231 and SKVO3 cells were seeded at a concentration of 10,000 cells per well on a 24 well plate and allowed to grow in monolayers. […] After incubating for 2 h at 37° C., cells were rinsed three times with fresh medium and then incubated in 0.5 ml fresh medium for an additional 66 h at 37° C. Sent medium was then replaced with 0.5 ml of medium containing ^3H-thymidine and incubated for additional 4 h. Cells were then again washed three times with the fresh medium and then incubated with 0.5 ml of 2.5% trichloroacetic acid for 10 min at room temperature. After removing the trichloroacetic acid, cells were dissolved in 0.25 N NaOH. Cell viability was determined by counting the incorporation of ^3H-thymidine in cells using scintillation counter (Packard, Packard Instrument Company). The IC50 value was derived from a plot of the percent of ^3H-thymidine incorporation versus log concentration using Graph Pad Prism 4.\n(§2) In vitro cytotoxicity of tubulysin B hydrazide conjugate: To inspect the killing efficiency of the therapeutic conjugate, MDA-MB231 and SKOV3 cancer cells were incubated with various concentrations of JL-L3-TubBH either in the presence or absence of excess JL-L3, for 2 h at 37° C. After washing off the excess conjugate, the cells were incubated in fresh media for an additional 66 h followed by incubation with media containing ^3H-thymidine to assess cell viability. Radioactivity was counted using PerkinElmer's scintillation counter. The same procedure was repeated after exposing the cells to the free tubulysin B hydrazide."}, "MDA-MB231 cells": {"system": "MDA-MB231 cells", "type": "cell-based, human", "settings": "free drug, 2 h exposure + 66 h, 3H-thymidine incorporation; read-out: IC50", "description": "as §1, §2"}},
  "data": [
    {"compound": "Cc1c(-c2cccc(CCC(=O)NCCCCCCCC(=O)N[C@H](CCC(=O)NC[C@H](O)[C@@H](O)[C@H](O)[C@H](O)CO)C(=O)N[C@H](CCC(=O)O)C(=O)N[C@H](CCC(=O)NC[C@H](O)[C@@H](O)[C@H](O)[C@H](O)CO)C(=O)NC[C@H](N)C(=O)N[C@@H](CC(=O)O)C(=O)N[C@@H](CS)C(=O)O)c2)c(=O)n(C[C@H](N)c2ccccc2)c(=O)n1Cc1c(F)cccc1F", "note": "(99mTc complex, metal not drawn) [JL-L3A]", "values": [
      {"measurement": "Kidney and liver uptake", "setting": "[1]; 99mTc conjugate", "value": "non-specific"},
      {"measurement": "Competition of kidney uptake by coadministered unlabeled conjugate", "setting": "[1]; 2 h post injection", "value": "not competed"},
      {"measurement": "Kidney uptake", "setting": "[1]; 150 μCi, 2 h post injection", "value": "highest uptake in the kidney"},
      {"measurement": "Spleen uptake", "setting": "[1]; 150 μCi, 2 h post injection", "value": "only minimal activity"},
      {"measurement": "Biodistribution compared among the three conjugates", "setting": "[1]; 2 h post injection", "value": "most favorable biodistributions"},
      {"measurement": "Tissue distribution at 4 h and 8 h post injection", "setting": "[1]; compared with 2 h post injection", "value": "same pattern as 2 h post injection"},
      {"measurement": "Tumor radioactivity intensity at 8 h relative to 2 h post-injection", "setting": "[1]; time-dependent imaging, 2 h, 4 h, 8 h", "value": "less than half of the intensity at 2 h post-injection"}
    ]},
    {"compound": "Cc1c(-c2cccc(CCC(=O)N[C@@H](CCC(=O)N[C@H](CCC(=O)NC[C@H](N)C(=O)N[C@@H](CC(=O)O)C(=O)N[C@@H](CS)C(=O)O)C(=O)O)C(=O)O)c2)c(=O)n(C[C@H](N)c2ccccc2)c(=O)n1Cc1c(F)cccc1F", "note": "[JL-L1A]", "values": [
      {"measurement": "Tumor uptake", "setting": "[1]; 150 μCi 99mTc conjugate i.v., 2 h post injection, with/without 100-fold excess unlabeled conjugate", "value": "highest uptake in the tumor"},
      {"measurement": "Uptake in other organs", "setting": "[1]; 150 μCi, 2 h post injection", "value": "uptake in other vital organs"}
    ]},
    {"compound": "Cc1c(-c2cccc(CCC(=O)NCCOCCOCCOCCOCCOCCOCCC(=O)NC[C@H](N)C(=O)N[C@@H](CC(=O)O)C(=O)N[C@@H](CS)C(=O)O)c2)c(=O)n(C[C@H](N)c2ccccc2)c(=O)n1Cc1c(F)cccc1F", "note": "[JL-L2A]", "values": [
      {"measurement": "Competition of kidney uptake by coadministered unlabeled conjugate", "setting": "[1]; 2 h post injection", "value": "not competed"},
      {"measurement": "Kidney uptake", "setting": "[1]; 150 μCi, 2 h post injection", "value": "highest uptake in the kidney"},
      {"measurement": "Spleen uptake", "setting": "[1]; 150 μCi, 2 h post injection", "value": "significant non-specific uptake in the spleen"}
    ]},
    {"compound": "Cc1c(-c2cccc(CCC(=O)NCCCCCCCC(=O)N[C@H](CCC(=O)NC[C@H](O)[C@@H](O)[C@H](O)[C@H](O)CO)C(=O)N[C@H](CCC(=O)O)C(=O)N[C@H](CCC(=O)NC[C@H](O)[C@@H](O)[C@H](O)[C@H](O)CO)C(=O)NC[C@H](N)C(=O)N[C@@H](CC(=O)O)C(=O)N[C@@H](CS)C(=O)O)c2)c(=O)n(C[C@H](N)c2ccccc2)c(=O)n1Cc1c(F)cccc1F", "note": "[JL-L3A]", "values": [
      {"measurement": "Kd", "setting": "LHRH-R; 99mTc chelated conjugate, 2 h at 37° C.", "value": 14.4, "unit": "nM"},
      {"measurement": "Cell-bound radioactivity under competition", "setting": "LHRH-R; presence of excess of competing ligand", "value": "diminished"}
    ]},
    {"compound": "CCCC(=O)OCN(C(=O)[C@@H](NC(=O)[C@H]1CCCCN1C)C(C)CC)[C@H](C[C@@H](OC(C)=O)c1nc(C(=O)N[C@@H](Cc2ccc(O)cc2)C[C@H](C)C(=O)NN)cs1)C(C)C", "note": "(stereo partly shown) [tubulysin B hydrazide, Tubulysin B hydrazide, reference compound]", "values": [
      {"measurement": "IC50", "setting": "SKOV3 cells", "value": 0.005, "unit": "nM"},
      {"measurement": "IC50", "setting": "MDA-MB231 cells", "value": 0.067, "unit": "nM"}
    ]}
  ]
}
